{"source": "patent US20240034757A1", "about": "(OXFORD UNIVERSITY INNOVATION, published 2024);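 for Kd: biolayer interferometry of evasin binding to chemokines, poorly fitted curves (R² under 0.9) discarded, every experiment run three or more times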", "key": {"[1]": {"target": "T1, CCL3_HUMAN (human, UniProt P10147 24-92)", "T1 sequence": "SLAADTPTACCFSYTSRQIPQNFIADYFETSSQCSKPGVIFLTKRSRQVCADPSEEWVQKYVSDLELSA", "assay": "BLI"}, "[2]": {"target": "T2, CCL22_HUMAN (human, UniProt O00626 25-93)", "T2 sequence": "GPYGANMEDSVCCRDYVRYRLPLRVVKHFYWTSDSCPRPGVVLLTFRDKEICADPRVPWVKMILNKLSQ", "assay": "BLI"}, "[3]": {"target": "CCL2_HUMAN (human, UniProt P13500 24-99)", "sequence (P13500 24-99 limits assumed)": "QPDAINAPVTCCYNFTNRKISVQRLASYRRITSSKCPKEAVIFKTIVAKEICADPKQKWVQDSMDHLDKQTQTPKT", "assay": "BLI"}, "[4]": {"target": "T3, CCL15_HUMAN (human, UniProt Q16663 22-113)", "T3 sequence": "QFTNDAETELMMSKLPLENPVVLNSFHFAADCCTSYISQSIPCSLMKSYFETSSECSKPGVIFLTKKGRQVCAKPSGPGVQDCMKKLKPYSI", "assay": "BLI"}, "[5]": {"target": "T4, CCL21_HUMAN (human, UniProt O00585 24-134)", "T4 sequence": "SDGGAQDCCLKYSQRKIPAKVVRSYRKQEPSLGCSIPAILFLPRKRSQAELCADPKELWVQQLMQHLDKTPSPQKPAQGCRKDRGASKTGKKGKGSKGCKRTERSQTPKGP", "assay": "BLI"}, "[6]": {"target": "T5, CCL23_HUMAN (human, UniProt P55773 22-120)", "T5 sequence": "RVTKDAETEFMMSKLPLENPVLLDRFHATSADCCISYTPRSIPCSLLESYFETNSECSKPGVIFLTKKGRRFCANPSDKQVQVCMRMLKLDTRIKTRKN", "assay": "BLI"}, "[7]": {"target": "T6, CCL5_HUMAN (human, UniProt P13501 24-91)", "T6 sequence": "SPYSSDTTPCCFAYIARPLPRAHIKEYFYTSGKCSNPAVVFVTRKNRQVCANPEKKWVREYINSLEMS", "assay": "BLI"}, "[8]": {"target": "CCL7_HUMAN (human, UniProt P80098 24-99)", "sequence (P80098 24-99 limits assumed)": "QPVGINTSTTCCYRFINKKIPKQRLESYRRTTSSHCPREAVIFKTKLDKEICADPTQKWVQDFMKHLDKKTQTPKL", "assay": "BLI"}, "[9]": {"target": "T7, CCL1_HUMAN (human, UniProt P22362 24-96)", "T7 sequence": "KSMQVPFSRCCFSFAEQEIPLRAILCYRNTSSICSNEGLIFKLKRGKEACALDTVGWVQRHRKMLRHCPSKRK", "assay": "BLI"}, "[10]": {"target": "T8, CCL4_HUMAN (human, UniProt P13236 24-92)", "T8 sequence": "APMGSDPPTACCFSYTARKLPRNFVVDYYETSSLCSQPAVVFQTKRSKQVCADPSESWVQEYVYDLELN", "assay": "BLI"}, "[11]": {"target": "T9, CCL19_HUMAN (human, UniProt Q99731 22-98)", "T9 sequence": "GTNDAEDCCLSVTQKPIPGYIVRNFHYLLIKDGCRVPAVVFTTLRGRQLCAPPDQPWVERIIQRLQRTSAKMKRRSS", "assay": "BLI"}, "[12]": {"target": "T10, CCL8_HUMAN (human, UniProt P80075 24-99)", "T10 sequence (looked up)": "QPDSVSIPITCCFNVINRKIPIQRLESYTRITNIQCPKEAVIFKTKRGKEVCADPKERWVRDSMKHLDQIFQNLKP", "assay": "BLI"}, "[13]": {"target": "T11, CCL4L1_HUMAN (human, UniProt Q8NHW4 24-92)", "T11 sequence": "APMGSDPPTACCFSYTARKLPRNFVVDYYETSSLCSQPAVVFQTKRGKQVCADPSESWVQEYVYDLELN", "assay": "BLI"}, "[14]": {"target": "T12, CCL24_HUMAN (human, UniProt O00175 27-104)", "T12 sequence": "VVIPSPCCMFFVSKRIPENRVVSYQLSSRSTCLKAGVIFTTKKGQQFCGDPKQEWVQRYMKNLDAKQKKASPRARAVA", "assay": "BLI"}, "[15]": {"target": "T13, CCL14_HUMAN (human, UniProt Q16627 22-93)", "T13 sequence": "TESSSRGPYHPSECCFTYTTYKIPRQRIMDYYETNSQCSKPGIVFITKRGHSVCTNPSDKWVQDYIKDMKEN", "assay": "BLI"}, "[16]": {"target": "CCL11_HUMAN (human, UniProt P51671 24-97)", "sequence (P51671 24-97 limits assumed)": "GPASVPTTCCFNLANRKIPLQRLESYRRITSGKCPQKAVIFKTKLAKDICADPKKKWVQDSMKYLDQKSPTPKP", "assay": "BLI"}, "[17]": {"target": "CCL13_HUMAN (human, UniProt Q99616 24-98)", "sequence (Q99616 24-98 limits assumed)": "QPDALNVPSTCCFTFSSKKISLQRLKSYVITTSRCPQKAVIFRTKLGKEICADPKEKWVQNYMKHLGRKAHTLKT", "assay": "BLI"}, "[18]": {"target": "T14, CXCL13_HUMAN (human, UniProt O43927 23-109)", "T14 sequence": "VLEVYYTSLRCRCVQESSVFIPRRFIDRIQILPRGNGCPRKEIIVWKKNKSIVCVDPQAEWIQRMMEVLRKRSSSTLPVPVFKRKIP", "assay": "BLI [Cont.) C]"}, "[19]": {"target": "T15, CXCL4_HUMAN (human, UniProt P02776 32-101)", "T15 sequence": "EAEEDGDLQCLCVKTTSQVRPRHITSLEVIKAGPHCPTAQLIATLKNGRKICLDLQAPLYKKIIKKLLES", "assay": "BLI [Cont.) C]"}, "[20]": {"target": "T16, CXCL14_HUMAN (human, UniProt O95715 35-111)", "T16 sequence": "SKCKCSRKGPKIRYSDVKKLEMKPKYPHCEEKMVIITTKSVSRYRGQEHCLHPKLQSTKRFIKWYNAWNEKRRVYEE", "assay": "BLI [Cont.) C]"}}}
{"binder": "P1156:G4S:P991 (designed binder, also called two-warhead evasin) ADDDNELFTVQYCGMNCTKDEGGTWTGCTGKKEGCKCYHESGKNYGLCLSTEYTDFSQYGNPSDSEIEAAKPKRSDTLSHGGGGSENGEGTTQPDYDNSTDYYNYEDFKCTCPAPHLNNTNGTVMKPIGCYYTCNVTRCTAPDTYPCYNLTEHQAKNLTTSPTTLCAVGNCDHGICVPNGTKELCFKAPNLEE", "values": [{"measurement": "Kd", "setting": "[1]", "result": 1.89, "unit": "nM"}, {"measurement": "RT", "setting": "[1]", "result": 38.2, "unit": "min"}, {"measurement": "Kd", "setting": "[2]", "result": 2.18, "unit": "nM"}, {"measurement": "RT", "setting": "[2]", "result": 15.8, "unit": "min"}, {"measurement": "Kd", "setting": "[3]", "result": 32.1, "unit": "nM"}, {"measurement": "RT", "setting": "[3]", "result": 3.25, "unit": "min"}, {"measurement": "Kd", "setting": "[4]", "result": 166, "unit": "nM"}, {"measurement": "RT", "setting": "[4]", "result": 0.66, "unit": "min"}, {"measurement": "Kd", "setting": "[5]", "result": 19.9, "unit": "nM"}, {"measurement": "RT", "setting": "[5]", "result": 15.3, "unit": "min"}, {"measurement": "Kd", "setting": "[6]", "result": 7, "unit": "nM"}, {"measurement": "RT", "setting": "[6]", "result": 28.5, "unit": "min"}, {"measurement": "Kd", "setting": "[7]", "result": 0.754, "unit": "nM"}, {"measurement": "RT", "setting": "[7]", "result": 103, "unit": "min"}, {"measurement": "Kd", "setting": "[8]", "result": 0.435, "unit": "nM"}, {"measurement": "RT", "setting": "[8]", "result": 231, "unit": "min"}, {"measurement": "Kd", "setting": "[9]", "result": 16.6, "unit": "nM"}, {"measurement": "RT", "setting": "[9]", "result": 2.01, "unit": "min"}, {"measurement": "Kd", "setting": "[10]", "result": 3.55, "unit": "nM"}, {"measurement": "RT", "setting": "[10]", "result": 26.6, "unit": "min"}, {"measurement": "binding result", "setting": "[11]", "result": "no binding"}, {"measurement": "Kd", "setting": "[12]", "result": 7.45, "unit": "nM"}, {"measurement": "RT", "setting": "[12]", "result": 15.3, "unit": "min"}, {"measurement": "Kd", "setting": "[13]", "result": 1.28, "unit": "nM"}, {"measurement": "RT", "setting": "[13]", "result": 33.8, "unit": "min"}, {"measurement": "Kd", "setting": "[14]", "result": 3.58, "unit": "nM"}, {"measurement": "RT", "setting": "[14]", "result": 6.75, "unit": "min"}, {"measurement": "Kd", "setting": "[15]", "result": 0.664, "unit": "nM"}, {"measurement": "RT", "setting": "[15]", "result": 159, "unit": "min"}, {"measurement": "Kd", "setting": "[16]", "result": 1.54, "unit": "nM"}, {"measurement": "RT", "setting": "[16]", "result": 24.8, "unit": "min"}, {"measurement": "Kd", "setting": "[17]", "result": 0.207, "unit": "nM"}, {"measurement": "RT", "setting": "[17]", "result": 221, "unit": "min"}]}
{"binder": "P1243:G4S:P1156 (designed binder) RNHTEDNSTEYYDYEEARCACPARHLNNTNGTVLKLLGCHYFCNGTLCTAPDGYPCYNLTAQQVRTLTTYPNTSCAVGVCMKGTCVKNGTMEQCFKTPGGGGSADDDNELFTVQYCGMNCTKDEGGTWTGCTGKKEGCKCYHESGKNYGLCLSTEYTDFSQYGNPSDSEIEAAKPKRSDTLSH", "values": [{"measurement": "binding result", "setting": "[18]", "result": "no binding (tested: 300 nM)"}, {"measurement": "binding result", "setting": "[19]", "result": "no binding (tested: 300 nM)"}, {"measurement": "binding result", "setting": "[20]", "result": "no binding (tested: 300 nM)"}]}
{"binder": "P991:G4S:P1156 (designed binder) ENGEGTTQPDYDNSTDYYNYEDFKCTCPAPHLNNTNGTVMKPIGCYYTCNVTRCTAPDTYPCYNLTEHQAKNLTTSPTTLCAVGNCDHGICVPNGTKELCFKAPNLEEGGGGSADDDNELFTVQYCGMNCTKDEGGTWTGCTGKKEGCKCYHESGKNYGLCLSTEYTDFSQYGNPSDSEIEAAKPKRSDTLSH", "values": [{"measurement": "Kd", "setting": "[1]", "result": 2.22, "unit": "nM"}, {"measurement": "RT", "setting": "[1]", "result": 37.1, "unit": "min"}, {"measurement": "Kd", "setting": "[2]", "result": 2.36, "unit": "nM"}, {"measurement": "RT", "setting": "[2]", "result": 15.6, "unit": "min"}, {"measurement": "Kd", "setting": "[3]", "result": 24.8, "unit": "nM"}, {"measurement": "RT", "setting": "[3]", "result": 4.02, "unit": "min"}, {"measurement": "Kd", "setting": "[4]", "result": 127, "unit": "nM"}, {"measurement": "RT", "setting": "[4]", "result": 0.87, "unit": "min"}, {"measurement": "Kd", "setting": "[5]", "result": 18.2, "unit": "nM"}, {"measurement": "RT", "setting": "[5]", "result": 17.7, "unit": "min"}, {"measurement": "Kd", "setting": "[6]", "result": 5.13, "unit": "nM"}, {"measurement": "RT", "setting": "[6]", "result": 35.2, "unit": "min"}, {"measurement": "Kd", "setting": "[7]", "result": 0.947, "unit": "nM"}, {"measurement": "RT", "setting": "[7]", "result": 92, "unit": "min"}, {"measurement": "Kd", "setting": "[8]", "result": 0.287, "unit": "nM"}, {"measurement": "RT", "setting": "[8]", "result": 375, "unit": "min"}, {"measurement": "Kd", "setting": "[9]", "result": 7.66, "unit": "nM"}, {"measurement": "RT", "setting": "[9]", "result": 4.13, "unit": "min"}, {"measurement": "Kd", "setting": "[10]", "result": 3.54, "unit": "nM"}, {"measurement": "RT", "setting": "[10]", "result": 28.1, "unit": "min"}, {"measurement": "binding result", "setting": "[11]", "result": "no binding"}, {"measurement": "Kd", "setting": "[12]", "result": 7.89, "unit": "nM"}, {"measurement": "RT", "setting": "[12]", "result": 16.6, "unit": "min"}, {"measurement": "Kd", "setting": "[13]", "result": 1.24, "unit": "nM"}, {"measurement": "RT", "setting": "[13]", "result": 38.3, "unit": "min"}, {"measurement": "Kd", "setting": "[14]", "result": 3.18, "unit": "nM"}, {"measurement": "RT", "setting": "[14]", "result": 8.52, "unit": "min"}, {"measurement": "Kd", "setting": "[15]", "result": 0.835, "unit": "nM"}, {"measurement": "RT", "setting": "[15]", "result": 135, "unit": "min"}, {"measurement": "Kd", "setting": "[16]", "result": 1.39, "unit": "nM"}, {"measurement": "RT", "setting": "[16]", "result": 30.6, "unit": "min"}, {"measurement": "Kd", "setting": "[17]", "result": 0.176, "unit": "nM"}, {"measurement": "RT", "setting": "[17]", "result": 276, "unit": "min"}]}
